Experimental data taken from paper PMC9959508.

Biological target: human angiotensin-converting enzyme 2 (human) (UniProt Q9BYF1)
Sequence (Q9BYF1 18-805): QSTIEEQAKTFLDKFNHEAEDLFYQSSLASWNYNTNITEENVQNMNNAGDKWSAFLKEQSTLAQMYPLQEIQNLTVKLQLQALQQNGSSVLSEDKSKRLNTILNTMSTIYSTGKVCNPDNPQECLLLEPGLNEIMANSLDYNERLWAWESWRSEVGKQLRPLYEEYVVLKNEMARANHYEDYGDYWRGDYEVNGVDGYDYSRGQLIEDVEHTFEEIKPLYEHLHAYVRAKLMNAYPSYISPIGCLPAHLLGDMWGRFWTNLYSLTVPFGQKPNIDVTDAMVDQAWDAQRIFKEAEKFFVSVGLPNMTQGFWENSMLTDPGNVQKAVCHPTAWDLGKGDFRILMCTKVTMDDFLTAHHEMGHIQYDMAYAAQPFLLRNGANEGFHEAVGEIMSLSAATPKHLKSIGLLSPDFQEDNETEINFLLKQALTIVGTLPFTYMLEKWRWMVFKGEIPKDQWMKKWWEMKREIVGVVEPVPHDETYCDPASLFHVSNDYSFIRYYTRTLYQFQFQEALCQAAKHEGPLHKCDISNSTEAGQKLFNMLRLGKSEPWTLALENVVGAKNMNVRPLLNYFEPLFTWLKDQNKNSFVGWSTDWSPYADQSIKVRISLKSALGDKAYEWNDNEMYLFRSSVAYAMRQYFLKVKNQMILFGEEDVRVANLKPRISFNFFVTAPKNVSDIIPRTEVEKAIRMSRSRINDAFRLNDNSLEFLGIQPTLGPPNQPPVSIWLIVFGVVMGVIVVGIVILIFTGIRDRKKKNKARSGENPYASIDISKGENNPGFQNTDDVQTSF

Sequence of PCSK9 lacking the M2 module of the CHRD (Q8NBP7 31-152): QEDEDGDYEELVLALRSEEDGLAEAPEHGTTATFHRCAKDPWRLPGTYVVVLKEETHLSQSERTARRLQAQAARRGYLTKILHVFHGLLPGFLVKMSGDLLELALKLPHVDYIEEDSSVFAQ
Sequence of PCSK9 lacking the M2 module of the CHRD (Q8NBP7 153-692): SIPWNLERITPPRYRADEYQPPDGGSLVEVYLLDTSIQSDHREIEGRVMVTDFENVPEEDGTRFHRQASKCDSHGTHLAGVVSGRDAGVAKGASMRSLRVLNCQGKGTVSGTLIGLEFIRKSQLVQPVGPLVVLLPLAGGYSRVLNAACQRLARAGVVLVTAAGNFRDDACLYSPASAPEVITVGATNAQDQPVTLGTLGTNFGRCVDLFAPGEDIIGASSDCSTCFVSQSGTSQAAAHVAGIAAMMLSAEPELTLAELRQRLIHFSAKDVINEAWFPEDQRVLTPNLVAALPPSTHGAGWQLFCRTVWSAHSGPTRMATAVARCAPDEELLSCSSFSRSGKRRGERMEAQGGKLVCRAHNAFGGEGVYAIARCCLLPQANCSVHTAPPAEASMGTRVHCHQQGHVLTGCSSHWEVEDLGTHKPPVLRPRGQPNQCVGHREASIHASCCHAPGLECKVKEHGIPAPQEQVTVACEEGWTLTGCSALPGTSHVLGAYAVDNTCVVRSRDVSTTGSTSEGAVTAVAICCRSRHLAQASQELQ
Sequence of wild-type human PCSK9, mature (prodomain non-covalently bound to the rest of the protein) (Q8NBP7 31-152): as the sequence (Q8NBP7 31-152) above
Sequence of wild-type human PCSK9, mature (prodomain non-covalently bound to the rest of the protein) (Q8NBP7 153-692): as the sequence (Q8NBP7 153-692) above
Sequence of PCSK9 lacking the CHRD (Q8NBP7 31-152): as the sequence (Q8NBP7 31-152) above
Sequence of PCSK9 lacking the CHRD (Q8NBP7 153-455): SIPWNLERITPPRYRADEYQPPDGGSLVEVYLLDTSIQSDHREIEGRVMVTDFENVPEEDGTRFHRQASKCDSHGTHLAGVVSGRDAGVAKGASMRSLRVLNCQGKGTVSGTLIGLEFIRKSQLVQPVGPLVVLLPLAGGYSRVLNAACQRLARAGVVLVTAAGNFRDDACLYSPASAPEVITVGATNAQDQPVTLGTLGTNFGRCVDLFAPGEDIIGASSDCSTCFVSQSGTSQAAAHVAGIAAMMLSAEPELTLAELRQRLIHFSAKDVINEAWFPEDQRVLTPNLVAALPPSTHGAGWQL

Substance	reduction of the level of ACE2 in HeLa cells after 18 h with conditioned medium (Western blot, relative to β-actin) [%]	reduction of the level of ACE2 in HeLa cells after 18 h with PCSK9 conditioned medium (Western blot, relative to β-actin) [%]
PCSK9-D374Y, gain-of-function natural variant (from UniProt Q8NBP7 31-152; Q8NBP7 153-692) (natural protein)	90	
PCSK9 lacking the CHRD (from UniProt Q8NBP7 31-152; Q8NBP7 153-455) (domain or fragment)	50	
wild-type human PCSK9, mature (prodomain non-covalently bound to the rest of the protein) (from UniProt Q8NBP7 31-152; Q8NBP7 153-692) (natural protein)		30
PCSK9 lacking the M2 module of the CHRD (from UniProt Q8NBP7 31-152; Q8NBP7 153-692) (natural protein)	50	
